The target of the test is T1, human VISTA (human, UniProt Q9H7M9 33-194, limits assumed).
T1 construct: The ELISA text says only recombinant VISTA; also called recombinant VISTA
Nature of the test: method not stated (Table 1, column Kd, M).

B1: VSTB70 (antibody, V domains shown)
VH: EVQLVQSGAEVKKPGATVKISCKVSGYTFSNYWIEWVQQAPGKGLEWMGEILPGSGNVHYNEKFKGRVTITADTSTDTAYMELSSLRSEDTAVYYCATPPHYYGYDYYDVNYWGQGTLVTVSS
VL: DVVMTQSPLSLPVTLGQPASISCKSSQSLLDSDGKTYLNWFQQRPGQSPRRLIYLVSELDSGVPDRFSGSGSGTDFTLKISRVEAEDVGVYYCWQGTHFPQTFGQGTKLEIKR
Turning to B1, binding was characterised by a dissociation constant (Kd) of 2.23 nM.

B2: VSTB65 (antibody, V domains shown)
VH: QVQLVQSGAEVKKPGASVKVSCKASGYTFTSYWIHWVRQAPGQGLEWMGEINPSNGLTNYNEKFRNRVTMTRDTSTSTVYMELSSLRSEDTAVYYCARSYDYDGDYYAMDYWGQGTLVTVSS
VL: DIVMTQSPLSLPVTPGEPASISCRSTQSIVHSNGNTYLEWYLQKPGQSPQLLIYKVSNRFSGVPDRFSGSGSGTDFTLKISRVEAEDVGVYYCFQASHVPWTFGQGTKLEIKR
Turning to B2, the dissociation constant (Kd) (commonly the concentration at which binding is half-saturated) came to 1.08 nM. Compared with the last molecule, the Kd is about 2.1-fold lower.

B3: INX901 | VSTB56 (antibody, V domains shown)
VH: QVQLVQSGAEVKKPGASVKVSCKASGYTFTSYWLHWVRQAPGQGLEWMGYIIPNTLHTDYNQKFKDRVTMTRDTSTSTVYMELSSLRSEDTAVYYCARLDGDYDYALDYWGQGTLVTVSS
VL: DIVMTQTPLSLSVTPGQPASISCRASESVEYYGTSFMQWYLQKPGQPPQLLIYTASNVESGVPDRFSGSGSGTDFTLKISRVEAEDVGVYYCQQSRKVPYTFGQGTKLEIK
notes: INX name = the VSTB variable regions with native human IgG2 constant regions; also called INX901 parental
In the case of B3, the affinity, expressed as Kd, was 0.0235 nM. This Kd is about 46-fold lower than that of the molecule before.

B4: INX906 | VSTB54 (antibody, V domains shown)
VH: QVQLVQSGAEVKKPGASVKVSCKASGYNIKDTYMHWVRQAPGQGLEWMGRIDPTHGYVIYDPKFQGRVTMTRDTSTSTVYMELSSLRSEDTAVYYCARDRFDPYWFLDVWGQGTLVTVSS
VL: DIVMTQTPLSLSVTPGQPASISCRASESVEYYGTSLMQWYLQKPGQSPQLLIYDAFNVESGVPDRFSGSGSGTDFTLKISRVEAEDVGVYYCQQSRKVPWTFGQGTKLEIK
notes: INX name = the VSTB variable regions with human IgG2 constant regions
B4: binding was characterised by a dissociation constant (Kd) of 0.0253 nM.

B5: INX902 | VSTB63 (antibody, V domains shown)
VH: QVQLQESGPGLVKPSETLSLTCAVSGFSITSDFAWNWIRQPPGKGLEWIGYITYSGFTNYNPSLESRVTISVDTSKNQFSLKLSSVTAADTAVYYCARQEYGNYVWYFDVWGQGTLVTVSS
VL: DIVMTQTPLSLSVTPGQPASISCRASESVEYYGTSLLQWYLQKPGQPPQLLIYAASNVESGVPDRFSGSGSGTDFTLKISRVEAEDVGVYYCQQSRKVPWTFGQGTKLEIK
notes: as for B4
For the molecule B5, binding was characterised by a dissociation constant (Kd) of 0.83 nM.

B6: INX908 | VSTB92 (antibody, V domains shown)
VH: QVQLVQSGAEVKKPGASVKVSCKASGYTFANYLIGWVRQAPGQRLEWMGDIYPGGGFISYNEKFKGRVTITRDTSASTAYMELSSLRSEDTAVYYCARRFDYGGYFFDYWGQGTLVTVSS
VL: DIVMTQSPLSLPVTPGEPASISCRSSQSIVHSNGNIYLEWYLQKPGQSPQLLIYKVSNRFSGVPDRFSGSGSGTDFTLKISRVEAEDVGVYYCFQGSHVPWTFGQGTKLEIK
notes: INX name = the VSTB variable regions with human IgG2 constant regions; also called INX908 parental
With B6, binding was characterised by a dissociation constant (Kd) of 0.0934 nM.

B7: INX907 | VSTB66 (antibody, V domains shown)
VH: QVQLVQSGAEVKKPGASVKVSCKASGYPFTGYFMHWVRQAPGQGLEWMGRINPYNGGTVYNQNFNDRVTMTRDTSTSTVYMELSSLRSEDTAVYYCARWTFDGLFMDYWGQGTTVTVSS
VL: DVVMTQSPLSLPVTLGQPASISCRASENVDKYGISFMNWFQQRPGQSPRRLIYATSNQGSGVPDRFSGSGSGTDFTLKISRVEAEDVGVYYCQQSKEDPYTFGQGTKLEIK
notes: as for B4
Consider B7, for which binding was characterised by a dissociation constant (Kd) of 0.0806 nM.

B8: VSTB51 (antibody, V domains shown)
VH: EVQLVESGGGLVQPGGSLRLSCAASGFTFSSYTMSWVRQAPGKGLEWVATISNSGSYTYYLDSVKGRFTISRDNAKNSLYLQMNSLRAEDTAVYYCARDTVLSPFDYWGQGTTVTVSS
VL: EIVLTQSPDFQSVTPKEKVTITCSATSSISYMHWYQQKPDQSPKLLIKDTSELASGVPSRFSGSGSGTDFTLTINSLEAEDAATYYCHQRSSFTFGQGTKLEIKR
Regarding B8, the affinity, expressed as Kd, was 0.104 nM.

B9: VSTB78 (antibody, V domains shown)
VH: QVQLVQSGAEVKKPGASVKVSCKASGYTFTNYWMHWVRQAPGQGLEWMGYINPSSGYTEYNQKFKDRVTMTRDTSTSTVYMELSSLRSEDTAVYYCARDGGSVLFGYWGQGTTVTVSS
VL: DIVMTQSPDSLAVSLGERATINCKSSQSLLNSGIRKNYLAWYQQKPGQPPKLLIYSASTRESGVPDRFSGSGSGTDFTLTISSLQAEDVAVYYCKQSYNLYTFGQGTKLEIKR
In turn, B9 registered a Kd of 1.13 nM.

B10: INX900 | VSTB50 (antibody, V domains shown)
VH: QVQLVQSGSELKKPGASVKVSCKASGYTFTNYGLNWVRQAPGQGLEWMGWINPYTGEPTYADDFKGRFVFSLDTSVSTAYLQICSLKAEDTAVYYCAREGYGNYIFPYWGQGTLVTVSS
VL: DIVMTQTPLSLSVTPGQPASISCRASESVDTYANSLMHWYLQKPGQPPQLLIYRASNLESGVPDRFSGSGSGTDFTLKISRVEAEDVGVYYCQQTNEDPRTFGQGTKLEIK
notes: as for B4
B10: the Kd worked out at 0.632 nM. Against the preceding molecule, the Kd is about 1.8-fold lower.

B11: VSTB59 (antibody, V domains shown)
VH: QVQLVQSGAEVKKPGASVKVSCKASGYTFTDYWMHWVRQAPGQGLEWMGAIETSLNYPSYNQKFKGRVTMTRDTSTSTVYMELSSLRSEDTAVYYCARWGIYGNPWFAYWGRGTLVTVSS
VL: DIVMTQTPLSLSVTPGQPASISCRASESVDSYVNSFVHWYLQKPGQPPQLLIYRASNLESGVPDRFSGSGSGTDFTLKISRVEAEDVGVYYCQQSNEDPYTFGQGTKLEIKR
As for B11, the Kd worked out at 0.106 nM.

B12: VSTB60 (antibody, V domains shown)
VH: QVQLVQSGSELKKPGASVKVSCKASGYTFTNYGMTWVRQAPGQGLEWMGWINTYTGESTYADDFKGRFVFSLDTSVSTAYLQICSLKAEDTAVYYCARDYYGIYVSAYWGQGTLVTVSS
VL: DIVMTQTPLSLSVTPGQPASISCRASESVDNYANSFMHWYLQKPGQSPQLLIYRASNLESGVPDRFSGSGSGTDFTLKISRVEAEDVGVYYCQQSHEDPYTFGQGTKLEIKR
Molecule B12 had a Kd of 0.356 nM.

B13: VSTB81 (antibody, V domains shown)
VH: QVTLKESGPALVKPTQTLTLTCTFSGFSLSTSGMGVSWIRQPPGKALEWLAHIYWDDDKRYNPSLKSRLTISKDTSKNQVVLTMTNMDPVDTATYYCARRPDYFGSSYVDWGQGTTVTVSS
VL: DIVMTQTPLSLSVTPGQPASISCRASESVDTYGNSFMHWYLQKPGQPPQLLIYLASNLDFGVPDRFSGSGSGTDFTLKISRVEAEDVGVYYCQQNNEDPWTFGQGTKLEIKR
In turn, B13 came in with a Kd of 0.312 nM.

B14: VSTB74 (antibody, V domains shown)
VH: QMQLVQSGPEVKKPGTSVKVSCKASGYIFTDYNIDWVRQARGQRLEWIGDINPKYDSTRYNQKFKGRVTITRDMSTSTAYMELSSLRSEDTAVYYCAADGSSAMDYWGQGTTVTVSS
VL: DIVMTQSPDSLAVSLGERATINCKSSQSLLNSGHQKNYLAWYQQKPGQPPKLLIYGASTRESGVPDRFSGSGSGTDFTLTISSLQAEDVAVYYCQNDHRYPLTFGQGTKLEIKR
Turning to B14, binding was characterised by a dissociation constant (Kd) of 0.562 nM.

For the origin of these results see US20210017281A1 (IMMUNEXT, published 2021).
